According to patent publication US20040013664A1:

Biological target: Fas receptor on human cells (Jurkat, HT-29) (human) (UniProt P25445)
Test: cell-based or functional assay

Sequence of Fas receptor on human cells (Jurkat, HT-29) (human) (P25445 26-335): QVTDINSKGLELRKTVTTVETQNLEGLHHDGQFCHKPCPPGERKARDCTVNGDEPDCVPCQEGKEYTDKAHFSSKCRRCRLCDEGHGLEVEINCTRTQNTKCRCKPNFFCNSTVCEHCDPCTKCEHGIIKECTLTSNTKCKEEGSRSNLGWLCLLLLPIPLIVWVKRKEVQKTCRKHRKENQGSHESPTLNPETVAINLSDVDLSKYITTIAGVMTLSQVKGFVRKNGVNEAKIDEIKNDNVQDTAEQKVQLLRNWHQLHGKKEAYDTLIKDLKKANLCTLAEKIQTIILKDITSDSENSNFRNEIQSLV

sFas ligand (Alexis Corporation, FLAG epitope tag at its N-terminus) (from UniProt P48023 103-281)
% Cells undergoing apoptosis (Jurkat, annexin/propidium iodide FACS); FasL (20 ng): 8.87% | decrease in Jurkat cell viability (ALOMAR blue): 50%
